In one experiment the target is T1, PAR-4 (Homo sapiens, UniProt Q96RI0).
T1 construct: expressed in transfected cells; host or cells: Sf9 insect cells infected with recombinant baculovirus VL-PAR (pVL1393)
T1 sequence (Q96RI0 18-385): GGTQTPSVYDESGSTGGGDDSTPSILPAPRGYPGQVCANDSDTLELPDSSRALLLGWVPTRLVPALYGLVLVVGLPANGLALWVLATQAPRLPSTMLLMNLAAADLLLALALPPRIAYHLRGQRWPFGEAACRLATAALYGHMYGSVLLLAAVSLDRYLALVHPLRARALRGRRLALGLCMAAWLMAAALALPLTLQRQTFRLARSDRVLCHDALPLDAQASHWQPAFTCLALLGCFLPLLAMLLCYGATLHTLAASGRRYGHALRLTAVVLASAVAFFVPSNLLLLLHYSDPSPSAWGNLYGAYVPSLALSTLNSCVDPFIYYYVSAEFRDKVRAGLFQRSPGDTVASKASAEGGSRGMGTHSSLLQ
Nature of the experiment: Calcium influx in PAR-4-expressing insect cells. The format is cell-based. The note with it: AST 2 units/ml; trypsin, thrombin 0.1 to 10 units/mL. How it is done: The above-obtained recombinant baculovirus VL-PAR for expressing the PAR was used to infect 1.0×10^7 Sf9 cells sowed on a 75 cm^2 flask at an MOI=2, and was then left and stationally cultured at 27° C. for 40 hours. After the culture, the infected cells were recovered and then subjected to a calcium influx experiment to-confirm the function of the PAR.
The recovered infected cells (about 5×10^6 cells) were once washed with HEPES-Tyrode buffer solution-Ca^2+ (−) pH 7.4, and then suspended in 5 mL of HEPES-Tyrode buffer solution (containing Fura2-AM, 1 μg/mL) to load the Fura2-AM on the cells at 27° C. for 30 minutes. The suspension was centrifuged at 800 rpm at room temperature for 5 minutes to recover the cells. The cells were twice washed with HEPES-Tyrode buffer solution-Ca^2+ (−) pH 7.4 and then resuspended in 5 mL of HEPES-Tyrode buffer solution-Ca^2+ (−) pH 7.4. The cell suspension was mixed with 5 μL of 1M CaCl2 to give a final concentration of 1 mM CaCl2, and then incubated in a shaded state at room temperature for 5 minutes. The prepared Fura2-AM-loaded infected cells were dispensed into a 96 well plate in a volume of 100 μL/well, further subjected to the dispensation of HEPES-Tyrode buffer solution-C^2+ (+) pH 7.4 in a volume of 80 μL/well, and then assayed with a Fluorescence Drug Screening System (made by Hamamatsu Photonics Co.). […]

The next experiment relates to BEAS-2B. Kind of experiment: Calcium influx in airway epithelial cell strain BEAS-2B. The format is cell-based. To be noted: AST 2 units/mL; trypsin 10 to 100 units/mL; SFLLRNamide 100 μM. How it is done: The Ca^2+ influx due to the AST was examined with respect to an airway epithelial cell strain BEAS-2B. The confluent cells adhered to six 10 cm dishes were used. The cells were peeled with a 10 mM EDTA/HEPES-Tyrode buffer solution for 10 minutes, recovered by a centrifugal treatment at 1,500 rpm at room temperature for 5 minutes, and then resuspended in 10 mL of HEPES-Tyrode buffer solution-Ca^2+ (−) pH 7.4. The recovered cells (about 1.1×10^7 cells) were suspended in 11 mL of HEPES-Tyrode buffer solution (1 μg/mL, containing Fura2-AM) to load the Fura2-AM at 37° C. for 30 minutes. The cells were recovered by a centrifugal treatment at 1,500 rpm at room temperature for 5 minutes, twice washed with HEPES-Tyrode buffer solution-Ca^2+ (−) pH 7.4, and then resuspended in 11 mL of HEPES-Tyrode buffer solution-Ca^2+ (−) pH 7.4. The cell suspension was mixed with […] of 1M CaCl2 to give a final concentration of 1 mM CaCl2, and then incubated in a shaded state at room temperature for 5 minutes. The prepared Fura2-AM-loaded infected cells were dispensed into a 96 well plate in a volume of 100 μL/well, further subjected to the dispensation of HEPES-Tyrode buffer solution-Ca^2+ (+) pH 7.4 in a volume of 80 μL/well, and then assayed with Fluorescence Drug Screening System (Hamamatsu Photonics Co.). […]

One substance from US20040038369A1, “Airway-specific trypsin-like enzymes and method of using the same” (priority 2000, published 2004) can be followed below.

On to “HAST: human airway-specific trypsin-like enzyme; propeptide moiety bound to trypsin-like protein moiety via a disulfide bond”, for which the “Ca2+ influx” value in the experiment with PAR-4 and in the experiment with BEAS-2B was “observed” each time.
